Results on 2 molecules are retold here after article PMC5551697 (The Journal of Cell Biology, 2017).

The target in data set [1] is T1, reconstituted Tda2–Aim21 complex (GST-Aim21–His-Tda2 complex) (S. cerevisiae, UniProt P40563 1-679; P40045 1-126).
T1 sequence (looked up) 1: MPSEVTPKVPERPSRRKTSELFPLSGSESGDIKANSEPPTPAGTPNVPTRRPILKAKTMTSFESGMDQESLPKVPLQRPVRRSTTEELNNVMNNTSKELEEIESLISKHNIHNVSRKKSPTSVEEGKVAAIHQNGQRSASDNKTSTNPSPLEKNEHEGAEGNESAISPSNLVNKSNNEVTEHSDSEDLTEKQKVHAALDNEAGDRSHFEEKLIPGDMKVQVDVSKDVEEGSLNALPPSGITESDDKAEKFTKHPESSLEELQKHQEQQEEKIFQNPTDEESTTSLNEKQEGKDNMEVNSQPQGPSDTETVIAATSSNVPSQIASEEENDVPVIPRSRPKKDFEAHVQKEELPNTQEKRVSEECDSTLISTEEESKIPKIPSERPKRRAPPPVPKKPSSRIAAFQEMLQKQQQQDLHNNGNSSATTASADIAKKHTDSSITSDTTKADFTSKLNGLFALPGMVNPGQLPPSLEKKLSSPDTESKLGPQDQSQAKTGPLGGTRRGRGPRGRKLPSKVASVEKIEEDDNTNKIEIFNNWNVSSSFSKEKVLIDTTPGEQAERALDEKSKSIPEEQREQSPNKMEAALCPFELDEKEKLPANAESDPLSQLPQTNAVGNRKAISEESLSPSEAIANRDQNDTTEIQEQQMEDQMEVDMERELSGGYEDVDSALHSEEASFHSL
T1 sequence (looked up) 2: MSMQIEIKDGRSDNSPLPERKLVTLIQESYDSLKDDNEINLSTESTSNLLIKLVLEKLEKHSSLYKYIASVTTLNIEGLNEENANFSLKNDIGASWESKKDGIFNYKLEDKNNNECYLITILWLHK
Nature of the data set: pull-down.

The data set “AUC” deals with the molecule itself. Put plainly: AUC.
The target in the next data set is T2, GST-Aim21 (S. cerevisiae, UniProt P40563 1-679).
T2 sequence (looked up): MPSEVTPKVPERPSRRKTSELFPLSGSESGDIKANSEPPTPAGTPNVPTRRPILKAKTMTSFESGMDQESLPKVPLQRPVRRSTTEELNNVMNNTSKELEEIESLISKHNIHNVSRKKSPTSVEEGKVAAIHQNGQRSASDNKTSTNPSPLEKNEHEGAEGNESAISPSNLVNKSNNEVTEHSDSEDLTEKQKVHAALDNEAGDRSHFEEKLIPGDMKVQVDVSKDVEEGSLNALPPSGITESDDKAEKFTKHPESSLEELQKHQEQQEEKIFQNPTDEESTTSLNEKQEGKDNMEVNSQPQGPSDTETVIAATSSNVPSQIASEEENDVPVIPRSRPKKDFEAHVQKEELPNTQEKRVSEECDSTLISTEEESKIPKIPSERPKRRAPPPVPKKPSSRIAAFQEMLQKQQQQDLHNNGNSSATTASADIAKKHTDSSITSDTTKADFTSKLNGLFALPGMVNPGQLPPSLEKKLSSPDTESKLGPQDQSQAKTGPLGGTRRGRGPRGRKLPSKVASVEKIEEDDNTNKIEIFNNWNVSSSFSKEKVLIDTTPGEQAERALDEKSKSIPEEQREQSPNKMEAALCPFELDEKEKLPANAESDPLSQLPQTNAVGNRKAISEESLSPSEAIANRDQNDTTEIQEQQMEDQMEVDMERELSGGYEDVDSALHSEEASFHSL
Put plainly: pull-down.

B1: actin-capping protein carrying a 6His-tag in its Cap1 subunit (His-Cap1/Cap2 dimer) (complex, S. cerevisiae)
chain 1: MSSSKFEEVINKIINDSPPGELREVYDDLIKITSENSKNTILDAIENYNVQNCIPIEVNGNSVIISKYNKEGAKFFDPVNSVIFSVNHLERKGLDIEPYEFTHAKIEKGQLKELHDKLHEYLLQSFPGDVSFAVYPVPEEISKISIIIVSTKYNPNNFWNGHWRSSYIYDLETRELSGQISTQVHYYEDGNVSFQSGKDINQSNVDDVVCTIRDIETNFENDLDLSFFDLNEKQFKALRRRLPVTRSKINWGSAIGSYRLGKNAAEGK
chain 2: MSDAQFDAALDLLRRLNPTTLQENLNNLIELQPNLAQDLLSSVDVPLSTQKDSADSNREYLCCDYNRDIDSFRSPWSNTYYPELSPKDLQDSPFPSAPLRKLEILANDSFDVYRDLYYEGGISSVYLWDLNEEDFNGHDFAGVVLFKKNQSDHSNWDSIHVFEVTTSPSSPDSFNYRVTTTIILHLDKTKTDQNSHMMLSGNLTRQTEKDIAIDMSRPLDVIFTSHVANLGSLIEDIESQMRNLLETVYFEKTRDIFHQTKNAAIASSAEEANKDAQAEVIRGLQSL
Regarding B1, the binding result in data set [1] is given as “binds”.

B2: recombinant 6-histidine-tagged Tda2 (natural protein, S. cerevisiae, UniProt P40045 1-126, looked up)
chain: MSMQIEIKDGRSDNSPLPERKLVTLIQESYDSLKDDNEINLSTESTSNLLIKLVLEKLEKHSSLYKYIASVTTLNIEGLNEENANFSLKNDIGASWESKKDGIFNYKLEDKNNNECYLITILWLHK
The term stoichiometry N denotes a count of units in the complex or per binding partner. On to B2, for which the “stoichiometry N” value in the data set “AUC” was 2. Besides, the binding result with GST-Aim21 is recorded as “binds”.
